In the RNAGym collection of RNA variant scans (doi:10.1073/pnas.2313332121):
This sample holds only a part of the variants without activity.

B1: TPR 5TU (parent)
chain: GGAUCUUCUCGAUCUAACAAAAAAGACAAAUCUGCCACAAAGCUUGAGAGCAUCUUCGGAUGCAGAGGCGGCAGCCUUCGGUGGCGCGAUAGCGCCAACGUUCUCAACUAUGACACGCAAAACGCGUGCUCCGUUGAAUGGAGUUUAUCAUG

Variants of: B1
Test: polymerase ribozyme fitness, log enrichment relative to wild type (log ratio); higher = more active; in vitro selection for triplet polymerase activity
Procedure, shortened: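 PCR was used to build mutant libraries for each subunit of a heterodimeric triplet polymerase ribozyme, which were then transcribed. A single in vitro selection round, in triplicate, used a frozen incubation at −7 °C and recovered extended constructs by gel excision, streptavidin beads and RT-PCR. Fitness is the logarithm of genotype enrichment relative to wild-type enrichment, averaged over replicates with inverse-variance weights. The logarithm is base 2, and after Illumina sequencing only genotypes with ≥10 input reads and ≥1 read per output were kept.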

Question: For U4A U15G A91C C114U C125A, which “polymerase ribozyme fitness (log ratio)” value is on record?
Answer: The value was at most -4.2.

Question: Which “polymerase ribozyme fitness (log ratio)” value does the source give for U4C C10A A12U U53A G88C C96A here?
Answer: Its value is at most -4.2.

Question: For U4G A23U A26U C27G C63U U90G C93A C108U C114U C129G G140C, which “polymerase ribozyme fitness (log ratio)” value is on record?
Answer: Its value is at most -4.2.

Question: For U4C A19G C76G G86U A89G A106C U134G, which “polymerase ribozyme fitness (log ratio)” value is on record?
Answer: Its value is at most -4.2.

Question: With U4C C38U U55G C87A A106G as the variant, how does the “polymerase ribozyme fitness (log ratio)” value read?
Answer: Its value is at most -4.2.

Question: For U4G A97U, which “polymerase ribozyme fitness (log ratio)” value is on record?
Answer: The value was 0.0622.

Question: With U4C A17C G42A G50C U53A G62A U90G A120U as the variant, how does the “polymerase ribozyme fitness (log ratio)” value read?
Answer: The value was at most -4.2.

Question: With U4C A49C A52C C99A C132U G136U G140U as the variant, how does the “polymerase ribozyme fitness (log ratio)” value read?
Answer: The value was at most -4.2.

Question: For U4C C5G A20U, which “polymerase ribozyme fitness (log ratio)” value is on record?
Answer: The value was -1.25.

Question: With U4G A16C A28U C38U U55A C75G U111C A122U A142C as the variant, how does the “polymerase ribozyme fitness (log ratio)” value read?
Answer: The value was at most -4.2.

Question: With U4G A40C A49G C96A as the variant, how does the “polymerase ribozyme fitness (log ratio)” value read?
Answer: Its value is -3.02.

Question: For U4G, which “polymerase ribozyme fitness (log ratio)” value is on record?
Answer: Its value is -0.0773.

Question: With U4C as the variant, how does the “polymerase ribozyme fitness (log ratio)” value read?
Answer: Its value is 0.371.

Question: Which “polymerase ribozyme fitness (log ratio)” value does the source give for U4A G48C C75A C99A U135C A150C here?
Answer: Its value is at most -4.2.

Question: Which “polymerase ribozyme fitness (log ratio)” value does the source give for U4G C54G A64U C95U U134G here?
Answer: Its value is at most -4.2.

Question: For U4C C57A C95A C96U G141A, which “polymerase ribozyme fitness (log ratio)” value is on record?
Answer: The value was -3.87.

Question: For U4G A23G C32U G62C G94C G126A G143U, which “polymerase ribozyme fitness (log ratio)” value is on record?
Answer: Its value is -4.05.

Question: With U4C A12U C57G C85U A98G G128U as the variant, how does the “polymerase ribozyme fitness (log ratio)” value read?
Answer: The value was at most -4.2.

Question: For U4C U7G C27U U31A G68U G88U, which “polymerase ribozyme fitness (log ratio)” value is on record?
Answer: The value was at most -4.2.

Question: Which “polymerase ribozyme fitness (log ratio)” value does the source give for U4C G58U C75A A91U U104G U144A C149U here?
Answer: The value was at most -4.2.

Question: Which “polymerase ribozyme fitness (log ratio)” value does the source give for U4C A22G G86A here?
Answer: The value was -1.64.

Question: For U4C C10G A28C A49C G86A C99G U104G, which “polymerase ribozyme fitness (log ratio)” value is on record?
Answer: The value was at most -4.2.

Question: With U4C U55A as the variant, how does the “polymerase ribozyme fitness (log ratio)” value read?
Answer: The value was -0.767.

Question: Which “polymerase ribozyme fitness (log ratio)” value does the source give for U4A C54U U56A C79G C85U C103G C116U G143C here?
Answer: The value was at most -4.2.

Question: With U4C G11A G68A C72A G83U C93G G140A U148C as the variant, how does the “polymerase ribozyme fitness (log ratio)” value read?
Answer: The value was at most -4.2.

Question: Which “polymerase ribozyme fitness (log ratio)” value does the source give for U4A C51G G84A A106U C118A here?
Answer: The value was at most -4.2.

Question: With U4C C8A A39G U55A G88U C93U U102G as the variant, how does the “polymerase ribozyme fitness (log ratio)” value read?
Answer: Its value is at most -4.2.

Question: Which “polymerase ribozyme fitness (log ratio)” value does the source give for U4G A24G U44A U56G G94A A138C here?
Answer: The value was at most -4.2.

Question: Which “polymerase ribozyme fitness (log ratio)” value does the source give for U4C C85U U101G A147C here?
Answer: Its value is -0.704.

Question: Which “polymerase ribozyme fitness (log ratio)” value does the source give for U4C C18G A52G C54U G70A A91C C93A G128U G133C U151C here?
Answer: The value was at most -4.2.

Question: For U4C C10U A20C A29U A52C A138C G140U, which “polymerase ribozyme fitness (log ratio)” value is on record?
Answer: The value was at most -4.2.

Question: Which “polymerase ribozyme fitness (log ratio)” value does the source give for U4G C8U U56A G84A here?
Answer: Its value is -1.05.

Question: For U4C A16C A17C, which “polymerase ribozyme fitness (log ratio)” value is on record?
Answer: The value was -0.602.

Question: With U4G C8A U31A U55A C87U U101C G133C as the variant, how does the “polymerase ribozyme fitness (log ratio)” value read?
Answer: Its value is at most -4.2.

Question: Which “polymerase ribozyme fitness (log ratio)” value does the source give for U4A C51U G94C A98U here?
Answer: The value was -1.63.

Question: With U4A U9C C27G U55A G70C C85A U127G A142U as the variant, how does the “polymerase ribozyme fitness (log ratio)” value read?
Answer: Its value is at most -4.2.

Question: Which “polymerase ribozyme fitness (log ratio)” value does the source give for U4G A37C C87U A122G C125A here?
Answer: The value was -3.07.

Question: With U4G C38A A47C C85G as the variant, how does the “polymerase ribozyme fitness (log ratio)” value read?
Answer: The value was -3.7.

Question: For U4G A49G C87G, which “polymerase ribozyme fitness (log ratio)” value is on record?
Answer: The value was at most -4.2.

Question: For U4C G50A G83A C87A A91C G92A U146A, which “polymerase ribozyme fitness (log ratio)” value is on record?
Answer: The value was at most -4.2.

Question: Which “polymerase ribozyme fitness (log ratio)” value does the source give for U4C C57U A66C C87U here?
Answer: Its value is at most -4.2.

Question: Which “polymerase ribozyme fitness (log ratio)” value does the source give for U4A G65A C85U A97U here?
Answer: Its value is -2.2.

Question: For U4C A23G C85U A98U G117A A119U G141U, which “polymerase ribozyme fitness (log ratio)” value is on record?
Answer: Its value is at most -4.2.

Question: For U4G A20U C93G U109A A138G, which “polymerase ribozyme fitness (log ratio)” value is on record?
Answer: Its value is at most -4.2.

Question: For U4G A19C G58U C69U C96A, which “polymerase ribozyme fitness (log ratio)” value is on record?
Answer: Its value is -0.414.

Question: With U4C C76A C93U G141C as the variant, how does the “polymerase ribozyme fitness (log ratio)” value read?
Answer: Its value is at most -4.2.

Question: Which “polymerase ribozyme fitness (log ratio)” value does the source give for U4G A12G A17G C93U G141C here?
Answer: Its value is -3.94.

Question: For U4C A12G U31G G94C A121G, which “polymerase ribozyme fitness (log ratio)” value is on record?
Answer: Its value is -0.0351.

Question: Which “polymerase ribozyme fitness (log ratio)” value does the source give for U4C C5U A12C G25C A40U G58C G133U here?
Answer: Its value is at most -4.2.

Question: With U4G A19U C43U C87U A98G as the variant, how does the “polymerase ribozyme fitness (log ratio)” value read?
Answer: The value was at most -4.2.

Question: Which “polymerase ribozyme fitness (log ratio)” value does the source give for U4C A17G C18A C57A G59A G68A C96A A107U A121U C123G here?
Answer: Its value is at most -4.2.

Question: With U4A G11C A20U A28U G143U U146G as the variant, how does the “polymerase ribozyme fitness (log ratio)” value read?
Answer: Its value is at most -4.2.

Question: Which “polymerase ribozyme fitness (log ratio)” value does the source give for U4C C35G C96U here?
Answer: The value was at most -4.2.

Question: With U4C C5A C87A A91G U145A as the variant, how does the “polymerase ribozyme fitness (log ratio)” value read?
Answer: Its value is at most -4.2.

Question: With U4G C38U G58A C95U C96U U127C as the variant, how does the “polymerase ribozyme fitness (log ratio)” value read?
Answer: The value was -3.54.

Question: For U4C G11A C57A C96U G124A A150C, which “polymerase ribozyme fitness (log ratio)” value is on record?
Answer: The value was at most -4.2.

Question: Which “polymerase ribozyme fitness (log ratio)” value does the source give for U4G C79A C93A here?
Answer: The value was at most -4.2.

Question: Which “polymerase ribozyme fitness (log ratio)” value does the source give for U4C U53A G92C C114A A120G here?
Answer: The value was at most -4.2.

Question: With U4G C27U A97U as the variant, how does the “polymerase ribozyme fitness (log ratio)” value read?
Answer: The value was -2.22.

Question: Which “polymerase ribozyme fitness (log ratio)” value does the source give for U4A C103A here?
Answer: The value was -2.38.

Question: For U4C C95U A122U, which “polymerase ribozyme fitness (log ratio)” value is on record?
Answer: Its value is -0.317.

Question: For U4C U53A U55A G81C A150U, which “polymerase ribozyme fitness (log ratio)” value is on record?
Answer: Its value is -1.4.

Question: With U4C A22U A26U A40C A52U G67A U90A C99A A150U as the variant, how does the “polymerase ribozyme fitness (log ratio)” value read?
Answer: The value was at most -4.2.

Question: With U4G A40G C72G C87U U104G C118U A122G as the variant, how does the “polymerase ribozyme fitness (log ratio)” value read?
Answer: The value was at most -4.2.

Question: For U4A C43G, which “polymerase ribozyme fitness (log ratio)” value is on record?
Answer: Its value is at most -4.2.

Question: Which “polymerase ribozyme fitness (log ratio)” value does the source give for U4C C51U C76U G94A here?
Answer: The value was -1.51.

Question: With U4G A89C C131A as the variant, how does the “polymerase ribozyme fitness (log ratio)” value read?
Answer: Its value is -3.28.

Question: For U4G A106G, which “polymerase ribozyme fitness (log ratio)” value is on record?
Answer: The value was -0.112.

Question: For U4C C103A U139C, which “polymerase ribozyme fitness (log ratio)” value is on record?
Answer: Its value is -3.94.

Question: With U4C C5G C32A A40C U82C A98G C103U A113C A150C as the variant, how does the “polymerase ribozyme fitness (log ratio)” value read?
Answer: Its value is at most -4.2.

Question: Which “polymerase ribozyme fitness (log ratio)” value does the source give for U4C G11U A49G U61A G80C A98G G141A here?
Answer: Its value is at most -4.2.

Question: Which “polymerase ribozyme fitness (log ratio)” value does the source give for U4C G86U here?
Answer: The value was -1.9.

Question: With U4C U15G U77A G92U C99G as the variant, how does the “polymerase ribozyme fitness (log ratio)” value read?
Answer: The value was at most -4.2.

Question: With U4G A29C C75A C96U A115U U148A as the variant, how does the “polymerase ribozyme fitness (log ratio)” value read?
Answer: Its value is -3.99.

Question: For U4A C132G U139G, which “polymerase ribozyme fitness (log ratio)” value is on record?
Answer: Its value is -3.71.

Question: With U4C A16C U55A G74U C85U C87U C103U U146A A147C as the variant, how does the “polymerase ribozyme fitness (log ratio)” value read?
Answer: The value was at most -4.2.

Question: For U4G A21U C32G C38G C93G U146A, which “polymerase ribozyme fitness (log ratio)” value is on record?
Answer: The value was at most -4.2.

Question: For U4C G42A A49C G50C C51U C79G A91U A121G, which “polymerase ribozyme fitness (log ratio)” value is on record?
Answer: The value was at most -4.2.

Question: For U4C A22U A73U C96G A120G, which “polymerase ribozyme fitness (log ratio)” value is on record?
Answer: The value was -2.21.

Question: For U4A G59A, which “polymerase ribozyme fitness (log ratio)” value is on record?
Answer: Its value is -1.06.

Question: For U4C A12C A24U C27G A28G U44A G88A C116U G143A, which “polymerase ribozyme fitness (log ratio)” value is on record?
Answer: Its value is at most -4.2.

Question: Which “polymerase ribozyme fitness (log ratio)” value does the source give for U4G C14U A52U C63U C85U here?
Answer: The value was -4.13.

Question: For U4C C14A C93G, which “polymerase ribozyme fitness (log ratio)” value is on record?
Answer: The value was at most -4.2.
